Columns and labels:
RICK = RICK (Homo sapiens, UniProt O43353); experiment: Autophosphorylation of RICK; details: immunoprecipitated from 293T cells, [γ-32P]ATP
FADD = molecular target: T1, FADD (Homo sapiens, UniProt Q13158); experiment: In vitro phosphorylation of recombinant FADD by RICK immunoprecipitates; type: biochemical; details: immunoprecipitates from 293T cells, 5 μM [γ-32P]ATP
T1 construct: made in house
T1 sequence (Q13158 1-208): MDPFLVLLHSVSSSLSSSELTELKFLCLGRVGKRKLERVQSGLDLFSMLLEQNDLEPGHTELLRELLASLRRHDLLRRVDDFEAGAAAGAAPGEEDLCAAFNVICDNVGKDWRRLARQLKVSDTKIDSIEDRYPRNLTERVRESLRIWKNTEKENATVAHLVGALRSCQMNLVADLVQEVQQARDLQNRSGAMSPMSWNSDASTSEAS
Description: CIPERK proteins in total lysate were detected by immunoblotting with mAb to Flag (middle panel). Recombinant FADD on the same filter used in (A) was detected by immunoblotting, with rabbit polyclonal anti-(His)6 antibody (lower panel). Note CIPERK was autophosphorylated. The estimated molecular size is shown on the left [293T cells were transfected with vector control or plasmid expressing Flag-CIPERK (WT) or Flag-CIPERK-K38M (mt), and then CIPERK proteins were immunoprecipitated by mAb to Flag and incubated with recombinant FADD and 5 μM [γ-^32P]ATP].

Sequence of RICK (O43353 with tags, fused parts or gaps): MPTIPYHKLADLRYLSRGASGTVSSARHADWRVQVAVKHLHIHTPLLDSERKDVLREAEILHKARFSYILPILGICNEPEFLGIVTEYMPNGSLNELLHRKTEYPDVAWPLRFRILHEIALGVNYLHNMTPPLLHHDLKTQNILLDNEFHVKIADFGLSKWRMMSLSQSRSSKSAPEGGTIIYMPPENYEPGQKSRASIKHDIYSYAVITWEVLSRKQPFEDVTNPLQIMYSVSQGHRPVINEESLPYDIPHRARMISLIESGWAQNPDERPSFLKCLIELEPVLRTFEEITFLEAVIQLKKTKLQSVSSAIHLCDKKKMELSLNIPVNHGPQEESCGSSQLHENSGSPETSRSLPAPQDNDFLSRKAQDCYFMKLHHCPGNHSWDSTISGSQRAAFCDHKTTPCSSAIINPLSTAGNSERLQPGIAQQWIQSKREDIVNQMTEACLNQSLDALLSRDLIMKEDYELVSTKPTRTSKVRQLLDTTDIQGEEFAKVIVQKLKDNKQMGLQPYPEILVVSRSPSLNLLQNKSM

## RICK-K38M: RICK ATP-binding site mutant, lysine at position 38 replaced by methionine
RICK
  auto-phosphorylation in vitro: dramatically decreased
FADD
  phosphorylation of recombinant FADD: did not
